# B1: TPR t1 (parent)
# chain: GACCAAUCUGCCCUCAGAGCUCGAGAACAUCUUCGGAUGCAGAGGAGGCAGGCUUCGGUGGCGCGAUAGCGCCAACGUCCUCAACCUCCAAUGCAUCCCACCACAUGAUGAUGCCUGAAGAGCCUUGGUUUUUUG
# Variants of: B1
# Assay: polymerase ribozyme fitness, log enrichment relative to wild type (log ratio); higher = more active; in vitro selection for triplet polymerase activity
# Outline: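 In triplicate, a single round of in vitro selection was run on each mutant library, PCR-built and transcribed, covering one subunit of a heterodimeric triplet polymerase ribozyme. Frozen incubation at −7 °C followed annealing with a biotinylated primer, partner subunit and triplets, and extended constructs were then gel-excised, streptavidin-captured and taken through RT-PCR. Fitness is the logarithm of genotype enrichment over wild-type enrichment, from inverse-variance-weighted replicate averages of Illumina-sequenced inputs and outputs. […] only genotypes with ≥10 input reads and ≥1 read per output were kept.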
row,Variant,polymerase ribozyme fitness (log ratio)
1,C11A U132A,-2.12
2,G10U C76A,-1.51
3,G10U G71C,-1.29
4,C11A C53G G57A C123G,-1.45
5,C11A C40G G42A G71A,-4.67
6,G10U G52A C79G A119U,-0.109
7,C11A C49G U129C,-2.01
8,C11G C12U G42C G69C,-5.66
9,C11A C40U C49U C56A C123G U129A,-3.2
10,C11G C73A,0.279
11,G10U G113U,-2.76
12,C11G C40A G122A G127U,-1.57
13,C11A G63U,-1.77
14,C11A A18U G127A,-4.94
15,C11A C53U C56A G63A C76G,-3.79
16,C11G C20A C53G U132A,-2.13
17,C11G A68U,-4.49
18,C11G C34U A84C,-3.61
19,C11A G17C U55C C88U U131G,-5.05
20,C11A C53G G60C G77C C86G,-4.21
21,C11A G52A A68G C101U G117C,-7.38
22,C11G A16G G60A C64U G110A A118G,-6.79
23,C11G A27C G48A C94G,-4.21
24,C11G C40U G47C C56A U92A,-6.34

row,Variant,polymerase ribozyme fitness (log ratio)
1,G10U C82G C85U G120C,0.866
2,C11A C12A G71A C89G A90G C101U U133G,-4.22
3,C11A U21A C40U G47A C49A G57A G58C G61U,-5.81
4,C11G C53U G61A G107A,-5.9
5,C11A A41U G45C,-3.39
6,C11A G52A C73G,-2.98
7,C11A C73U C94U,-1.82
8,C11A C15U G44U C72A U129A U132C,-5.25
9,C11G C53U C80U C88A U112C,0.738
10,C11A C56A A100C,-3.86
11,C11G C70U,0.101
12,C11G A43G U59A,-1.75
13,C11G C12A G69C C104A,-2.8
14,C11G A18U G42C C89A,-0.965
15,G10U U78C,-0.395
16,C11G C64U,-0.506
17,C11A G71U,-1.08
18,C11A G71A,-1.67
19,G10U G110A,-1.35
20,C11G C76A G77A G93U,-1.15
21,C11G C15G G113U,-4.66
22,C11G A29G C49G G93U,-3.07
23,C11G C34U C49A C123U,-2.86
24,C11A C56A U81G A84U C101U C115A G120C U134G,0.0951

row,Variant,polymerase ribozyme fitness (log ratio)
1,G10U G36A G61C,-3.3
2,C11A A75U C79U C85A,-2.71
3,G10U U21A G60U G71A C89U C101U C124A,-6.77
4,C11G A74U C76A U78A C80U G93U G135C,-3.08
5,C11A U55G C80U C104U G113A,-4.77
6,C11G A50C C72A U92G C114A G122C U131C,-3.27
7,C11A C62U C94A,-2.43
8,C11A G45A G61A,-1.68
9,C11G A27C G113C G127C,-5.64
10,G10U C82G G117C,-4.93
11,C11G C31A A41U C70G G113U,-5.92
12,C11G A37U G71A C79A,-1.37
13,C11A G60C,-1.7
14,C11A G48A A50U C70U C97G G122A,-5.3
15,G10U G36A C64G A83G C94G G110U,-7.24
16,C11A G42A C86U U96A,-4.6
17,C11G C20G C49A G117C,-5.23
18,C11A G36U G77C,-3.38
19,C11A C73A U81C U125A,-3.38
20,G10U U14G U116C,-1.69
21,G10U U112G,0.352
22,C11G A84U,-0.202
23,C11A C64U,-1.04
24,C11G C12G G48U G58U G60U C85A U106G,-4.78

row,Variant,polymerase ribozyme fitness (log ratio)
1,C11G C22U G44U,-4.93
2,C11A G77A C82G,-1.88
3,G10U G63A U112A,-0.981
4,C11G A68G U81A U106A G110A G113U A121G,-6.2
5,G10U U129C,-1.9
6,G10U G69A,-3.09
7,C11G C40A,-1.54
8,C11A G45U A95C G113U,-7.14
9,C11G C40A C76G C86U C114U U125C,-5.11
10,C11A A46C G61U C94A,-2.34
11,C11G C28U C56A G60A U78G,-4.9
12,C11G C12A C64U U96C A108G,-2.32
13,C11A U33G G69U U106A,-2.62
14,C11G A27U G47C A83U,-3.57
15,G10U G17A C56A C89G G117A,-3.05
16,C11A C72G,-1.14
17,C11A U14G G63A G71A A83G A91C C114U,-5.74
18,C11A G48U A66U C72A U96G U112C,-2.05
19,C11A G51C,-4.99
20,G10U U55G A111C,-0.134
21,C11G C70G C123U,-0.504
22,G10U U87A U92C A121G U132C,1.22
23,G10U G48U G93A C123G,0.384
24,C11G A16U G93U A100C C123U,-3.13

row,Variant,polymerase ribozyme fitness (log ratio)
1,C11G C56U U87C,0.175
2,C11A A121U,0.371
3,C11A U14A A18U U55C,-4.98
4,C11A U116G,-4.36
5,C11G C88G G93C,-3.14
6,C11A G39C G110C,-5.5
7,C11A C49G G63C C79A,-6.2
8,C11A C40U G69U A83G G117U G127C U133G,-4.24
9,C11G A37C A46U G120C G128C,-0.871
10,C11G C82G G117C,-2.58
11,C11G A50U A66G U87C C115U A118C,-6.65
12,C11G A66G C114U C124G,-3.83
13,C11G C73A C82U,-0.161
14,C11A G60C A95C,-1.9
15,C11A A41C G58A U96A,-3.23
16,C11G A18U C72A A91U G110C,-5.23
17,C11G C13G A50C G110C,-5.28
18,C11G C20A A26U C85U A90U A121C,-4.44
19,C11G C34U C86G A119U,-5.27
20,C11G C20U G63A,-2.21
21,C11A G60U A74U C88A,-2.8
22,C11G A50C,-0.589
23,C11A G57A C73A C88G,-4.51
24,G10U U55C C123A,0.286

row,Variant,polymerase ribozyme fitness (log ratio)
1,C11G C28U,-2.03
2,G10U C94U C101A C104A,-3.21
3,C11G C97A C102U,-4.77
4,G10U U106A,0.263
5,C11G C40U U87G C115U,-0.239
6,C11A A105C,-3.07
7,G10U G19C A37U C72A C73U C123G U130C,-2.79
8,C11A G52C U54C C94U G120C,0.0193
9,C11A G69U C79U C102U,-1.74
10,C11A G45A G60A G113C,-4.47
11,C11A G107A,-5.12
12,C11A A18U U21A C56U,-3.04
13,C11G C12A C49U C85A A91C,-2.76
14,C11G A50U G93U G113U,-4.55
15,C11G C13U C56U G69A G77C C101A,-5.25
16,C11G A66C,-0.842
17,C11G C85G,-1.55
18,C11A C53U C85A,-3.03
19,C11A C115G,-3.42
20,C11G C56G U106G,-0.581
21,C11A C12G C20U U55A C56U G93C,-4.53
22,C11G C22U C34A A37U C88A U96G C115U,-7.3
23,C11G A16U G58C A83C C89U U131A,-3.15
24,G10U G39A C98U,-1.4

row,Variant,polymerase ribozyme fitness (log ratio)
1,C11G C28G A105U G110U,-6.33
2,C11G A24G C40U A90G U131A,-2.57
3,C11G C80U,-0.0495
4,C11A C22G,-4.15
5,C11G A37U G42U,-0.864
6,C11A A37C U54C,-2.16
7,G10U G57A G60A,-0.571
8,C11A G77U U87G U106G G113C U125G,-4.71
9,C11A C20U C34A C53A C94G A121U,-3.61
10,C11A G48U G69U A103C,-3.74
11,G10U U78C C88G,-1.13
12,C11G C53G U96G A105C U112G,-5.28
13,C11A G44U C56U,-2.23
14,C11G A43G C85A C89G C94U,-2.52
15,C11A C12U G71U A84C,-1.73
16,C11A C31U C40U G47C C62U G107A,-4.34
17,C11G C49A G52U U131A,-1.34
18,G10U G71A A103U C114U,-4.96
19,C11A G69U C94U U130A,-1.6
20,G10U G17A,-3.07
21,C11G C12A G51A C80A U116G,-5.92
22,C11G C62U,-0.108
23,C11G C56G C79U,-0.259

# From the RNAGym collection of RNA variant scans (doi:10.1073/pnas.2313332121)
